Series [1] relates to HeLa Kyoto. Nature of the series: thermal stability score vs G1/S (z-score of summed log2 fold changes over temperatures); higher = more thermally stable than in G1/S.
Series [2] has as its system HeLa Kyoto. Nature of the series: solubility in G1/S (NP-40 vs SDS abundance) (log2 ratio); higher = more soluble. The following applies: cell cycle stage: G1/S.
For series [3], the system named is HeLa Kyoto. Briefly: melting temperature (median over replicates), in situ; higher = more thermally stable.
In series [4] the test system is HeLa Kyoto. Briefly: solubility change mitosis vs G1/S (difference of NP-40 vs SDS log2 ratios) (log2 ratio difference); higher = more soluble in mitosis.
The mark [5] stands for this setting: cell cycle stage: early G1 (4.5 h after nocodazole release).
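For melting temperature (median over replicates), in situ in this document: HeLa Kyoto cells synchronized by double thymidine or nocodazole block, proteins quantified by TMT10plex mass spectrometry, three independent biological replicates.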
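For solubility change mitosis vs G1/S (difference of NP-40 vs SDS log2 ratios) in this document: synchronized HeLa Kyoto cells (double thymidine block for G1/S, nocodazole release for mitosis), protein amounts in NP-40 versus SDS lysates quantified by mass spectrometry, three biological replicates.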
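For solubility in G1/S (NP-40 vs SDS abundance) in this document: HeLa Kyoto cells arrested at G1/S by double thymidine block, proteins quantified by TMT10plex mass spectrometry in mild NP-40 versus SDS extracts, three biological replicates.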
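For thermal stability score vs G1/S (z-score of summed log2 fold changes over temperatures) in this document: synchronized HeLa Kyoto cells, proteins quantified by TMT10plex mass spectrometry, three biological replicates, mitosis taken 0.5 h after nocodazole release, G1/S directly after double thymidine block.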

Regarding “MVPSRRTWNLGATPSLRGLWRVGRAPEPEPGMARPAPAPASPAARPFPHTGPGRLRTGRGKDTPVCGDEDSSARSAARPALAQCRALSVDWAGPGSPHGLYLTLQVEHLKEKLISQAQEVSRLRSELGGTDLEKHRDLLMVENERLRQEMRRCEAELQELRTKPAGPCPGCEHSQESAQLRDKLSQLQLEMAESKGMLSELNLEVQQKTDRLAEVELRLKDCLAEKAQEEERLSRRLRDSHETIASLRAQSPPVKYVIKTVEVESSKTKQALSESQARNQHLQEQVAMQRQVLKEMEQQLQSSHQLTARLRAQIAMYESELERAHGQMLEEMQSLEEDKNRAIEEAFARAQVEMKAVHENLAGVRTNLLTLQPALRTLTNDYNGLKRQVRGFPLLLQEALRSVKAEIGQAIEEVNSNNQELLRKYRRELQLRKKCHNELVRLKGNIRVIARVRPVTKEDGEGPEATNAVTFDADDDSIIHLLHKGKPVSFELDKVFSPQASQQDVFQEVQALVTSCIDGFNVCIFAYGQTGAGKTYTMEGTAENPGINQRALQLLFSEVQEKASDWEYTITVSAAEIYNEVLRDLLGKEPQEKLEIRLCPDGSGQLYVPGLTEFQVQSVDDINKVFEFGHTNRTTEFTNLNEHSSRSHALLIVTVRGVDCSTGLRTTGKLNLVDLAGSERVGKSGAEGSRLREAQHINKSLSALGDVIAALRSRQGHVPFRNSKLTYLLQDSLSGDSKTLMVVQVSPVEKNTSETLYSLKFAERVRSVELGPGLRRAELGSWSSQEHLEWEPACQTPQPSARAHSAPSSGTSSRPGSIRRKLQPSGKSRPLPV [KIFC3]”, the thermal stability score in the series with HeLa Kyoto [1] (setting [5]) was 0.116; in the series on HeLa Kyoto [1] (cell cycle stage: mitosis) it was 0.946. Further, in the series on HeLa Kyoto [2], the “solubility in G1/S (log2)” value was -0.0691. In addition, the melting temperature came to 49.1 °C in the series on HeLa Kyoto [3] (cell cycle stage: G1/S) and 47.3 °C in the series with HeLa Kyoto [3] (cell cycle stage: mitosis). The “solubility change mitosis (log2)” value with HeLa Kyoto [4] is 0.169.

For “MVRKKNPPLRNVASEGEGQILEPIGTESKVSGKNKEFSADQMSENTDQSDAAELNHKEEHSLHVQDPSSSSKKDLKSAVLSEKAGFNYESPSKGGNFPSFPHDEVTDRNMLAFSSPAAGGVCEPLKSPQRAEADDPQDMACTPSGDSLETKEDQKMSPKATEETGQAQSGQANCQGLSPVSVASKNPQVPSDGGVRLNKSKTDLLVNDNPDPAPLSPELQDFKCNICGYGYYGNDPTDLIKHFRKYHLGLHNRTRQDAELDSKILALHNMVQFSHSKDFQKVNRSVFSGVLQDINSSRPVLLNGTYDVQVTSGGTFIGIGRKTPDCQGNTKYFRCKFCNFTYMGNSSTELEQHFLQTHPNKIKASLPSSEVAKPSEKNSNKSIPALQSSDSGDLGKWQDKITVKAGDDTPVGYSVPIKPLDSSRQNGTEATSYYWCKFCSFSCESSSSLKLLEHYGKQHGAVQSGGLNPELNDKLSRGSVINQNDLAKSSEGETMTKTDKSSSGAKKKDFSSKGAEDNMVTSYNCQFCDFRYSKSHGPDVIVVGPLLRHYQQLHNIHKCTIKHCPFCPRGLCSPEKHLGEITYPFACRKSNCSHCALLLLHLSPGAAGSSRVKHQCHQCSFTTPDVDVLLFHYESVHESQASDVKQEANHLQGSDGQQSVKESKEHSCTKCDFITQVEEEISRHYRRAHSCYKCRQCSFTAADTQSLLEHFNTVHCQEQDITTANGEEDGHAISTIKEEPKIDFRVYNLLTPDSKMGEPVSESVVKREKLEEKDGLKEKVWTESSSDDLRNVTWRGADILRGSPSYTQASLGLLTPVSGTQEQTKTLRDSPNVEAAHLARPIYGLAVETKGFLQGAPAGGEKSGALPQQYPASGENKSKDESQSLLRRRRGSGVFCANCLTTKTSLWRKNANGGYVCNACGLYQKLHSTPRPLNIIKQNNGEQIIRRRTRKRLNPEALQAEQLNKQQRGSNEEQVNGSPLERRSEDHLTESHQREIPLPSLSKYEAQGSLTKSHSAQQPVLVSQTLDIHKRMQPLHIQIKSPQESTGDPGNSSSVSEGKGSSERGSPIEKYMRPAKHPNYSPPGSPIEKYQYPLFGLPFVHNDFQSEADWLRFWSKYKLSVPGNPHYLSHVPGLPNPCQNYVPYPTFNLPPHFSAVGSDNDIPLDLAIKHSRPGPTANGASKEKTKAPPNVKNEGPLNVVKTEKVDRSTQDELSTKCVHCGIVFLDEVMYALHMSCHGDSGPFQCSICQHLCTDKYDFTTHIQRGLHRNNAQVEKNGKPKE [TRPS1]”, the thermal stability score in the series with HeLa Kyoto [1] (setting [5]) came out at 0.487; with HeLa Kyoto [1] (cell cycle stage: mitosis), 0.962. Also, in the series with HeLa Kyoto [2], the “solubility in G1/S (log2)” value came out at 0.00718. The melting temperature with HeLa Kyoto [3] (cell cycle stage: G1/S) stood at 51.1 °C; in the series on HeLa Kyoto [3] (cell cycle stage: mitosis) it was 51.9 °C. In addition, the “solubility change mitosis (log2)” value in the series on HeLa Kyoto [4] is -0.0534.

Turning to “MVRTKTWTLKKHFVGYPTNSDFELKTAELPPLKNGEVLLEALFLTVDPYMRVAAKRLKEGDTMMGQQVAKVVESKNVALPKGTIVLASPGWTTHSISDGKDLEKLLTEWPDTIPLSLALGTVGMPGLTAYFGLLEICGVKGGETVMVNAAAGAVGSVVGQIAKLKGCKVVGAVGSDEKVAYLQKLGFDVVFNYKTVESLEETLKKASPDGYDCYFDNVGGEFSNTVIGQMKKFGRIAICGAISTYNRTGPLPPGPPPEIVIYQELRMEAFVVYRWQGDARQKALKDLLKWVLEGKIQYKEYIIEGFENMPAAFMGMLKGDNLGKTIVKA [PTGR1]”, the figures for the thermal stability score in the series with HeLa Kyoto [1] (setting [5]) and in the series on HeLa Kyoto [1] (cell cycle stage: mitosis) were 0.13 and -1.48, respectively. The “solubility in G1/S (log2)” value with HeLa Kyoto [2] was determined as 0.248. Also, the results for the melting temperature with HeLa Kyoto [3] (cell cycle stage: G1/S) and with HeLa Kyoto [3] (cell cycle stage: mitosis) were 53.2 °C and 53.5 °C, respectively. For the same sequence, in the series on HeLa Kyoto [4], the “solubility change mitosis (log2)” value was -0.225.

As to “MVVFGYEAGTKPRDSGVVPVGTEEAPKVFKMAASMHGQPSPSLEDAKLRRPMVIEIIEKNFDYLRKEMTQNIYQMATFGTTAGFSGIFSNFLFRRCFKVKHDALKTYASLATLPFLSTVVTDKLFVIDALYSDNISKENCVFRSSLIGIVCGVFYPSSLAFTKNGRLATKYHTVPLPPKGRVLIHWMTLCQTQMKLMAIPLVFQIMFGILNGLYHYAVFEETLEKTIHEE [TMEM126B]”, the values for the thermal stability score in the series with HeLa Kyoto [1] (setting [5]) and in the series on HeLa Kyoto [1] (cell cycle stage: mitosis) were 0.469 and -1.3, respectively. Further, the “solubility in G1/S (log2)” value in the series with HeLa Kyoto [2] was -0.0998. Further, the melting temperature in the series with HeLa Kyoto [3] (cell cycle stage: G1/S) is 55.9 °C; in the series with HeLa Kyoto [3] (cell cycle stage: mitosis), 53.5 °C. For the same sequence, the “solubility change mitosis (log2)” value in the series with HeLa Kyoto [4] stood at 0.00498.

With “MVWKRLGALVMFPLQMIYLVVKAAVGLVLPAKLRDLSRENVLITGGGRGIGRQLAREFAERGARKIVLWGRTEKCLKETTEEIRQMGTECHYFICDVGNREEVYQTAKAVREKVGDITILVNNAAVVHGKSLMDSDDDALLKSQHINTLGQFWTTKAFLPRMLELQNGHIVCLNSVLALSAIPGAIDYCTSKASAFAFMESLTLGLLDCPGVSATTVLPFHTSTEMFQGMRVRFPNLFPPLKPETVARRTVEAVQLNQALLLLPWTMHALVILKSILPQAALEEIHKFSGTYTCMNTFKGRT [DHRS3]”, the thermal stability score in the series on HeLa Kyoto [1] (setting [5]) is 0.157; with HeLa Kyoto [1] (cell cycle stage: mitosis) it was -0.582. Besides, in the series with HeLa Kyoto [2], the “solubility in G1/S (log2)” value is -0.137. Moreover, the melting temperature with HeLa Kyoto [3] (cell cycle stage: G1/S) amounted to 54 °C; in the series with HeLa Kyoto [3] (cell cycle stage: mitosis), 53.1 °C. Also, the “solubility change mitosis (log2)” value in the series with HeLa Kyoto [4] was -0.135.

The record behind these values is the supplement of paper PMC5998384.
